Experimental data taken from publication PMC3288673.

Target: T1, Rev-Erbα (UniProt P20393 1-614)
T1 sequence: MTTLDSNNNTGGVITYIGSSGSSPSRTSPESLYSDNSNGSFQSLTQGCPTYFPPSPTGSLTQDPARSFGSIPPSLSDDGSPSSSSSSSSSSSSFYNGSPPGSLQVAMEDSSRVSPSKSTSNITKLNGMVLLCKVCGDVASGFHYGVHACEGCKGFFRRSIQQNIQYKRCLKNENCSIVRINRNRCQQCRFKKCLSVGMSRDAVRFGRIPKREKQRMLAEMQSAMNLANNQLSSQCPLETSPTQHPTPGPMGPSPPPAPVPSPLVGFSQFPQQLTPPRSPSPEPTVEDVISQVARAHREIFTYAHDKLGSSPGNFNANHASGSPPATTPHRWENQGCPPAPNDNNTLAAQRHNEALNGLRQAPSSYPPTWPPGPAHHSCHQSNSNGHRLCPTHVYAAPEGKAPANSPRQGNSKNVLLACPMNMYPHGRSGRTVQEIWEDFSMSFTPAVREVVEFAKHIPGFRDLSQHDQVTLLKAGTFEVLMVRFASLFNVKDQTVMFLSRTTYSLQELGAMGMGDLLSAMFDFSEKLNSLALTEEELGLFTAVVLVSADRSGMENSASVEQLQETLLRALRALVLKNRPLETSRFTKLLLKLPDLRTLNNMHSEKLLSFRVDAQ
Experiment: EMSA

B1: RevDR2 (dsDNA)
DNA 1: AGCTCCAACTAGGTCACTAGGTCAAAGGGA
DNA 2: TCGATCCCTTTGACCTAGTGACCTAGTTGG
B1: binds.
